Reference: patent US10239925B2, “Peptides and combination of peptides for use in immunotherapy against ovarian cancer and other cancers” (IMMATICS BIOTECHNOLOGIES GMBH, priority 2015, dated 2019)

molecular target: HLA-A*02:01 (Homo sapiens, UniProt P04439, D140Y/D185E/D98H/E176V/E277Q/G131W/G231S/I119V/I121R/I166T/I218V/L300P/L318F/N151K/N90K/P208A/P217A/Q86G/Q94H/R138H/R169H/T345S); assay: MHC binding assay (UV-ligand exchange, anti-β2m ELISA, peptide exchange yield); conditions: binding to HLA-A*02:01
Description: Candidate peptides for T cell based therapies according to the present invention were further tested for their MHC binding capacity (affinity). The individual peptide-MHC complexes were produced by UV-ligand exchange, where a UV-sensitive peptide is cleaved upon UV-irradiation, and exchanged with the peptide of interest as analyzed. Only peptide candidates that can effectively bind and stabilize the peptide-receptive MHC molecules prevent dissociation of the MHC complexes. To determine the yield of the exchange reaction, an ELISA was performed based on the detection of the light chain (β2m) of stabilized MHC complexes. The assay was performed as generally described in Rodenko et al. (Rodenko et al., 2006).
96 well MAXISorp plates (NUNC) were coated over night with 2 ug/ml streptavidin in PBS at room temperature, washed 4× and blocked for 1h at 37° C. in 2% BSA containing blocking buffer. […] Peptide-MHC monomers of the UV-exchange reaction were diluted 100 fold in blocking buffer. Samples were incubated for 1 h at 37° C., washed four times, incubated with 2 ug/ml HRP conjugated anti-β2m for 1h at 37° C., washed again and detected with TMB solution that is stopped with […]. Absorption was measured at 450 nm. Candidate peptides that show a high exchange yield (preferably higher than 50%, most preferred higher than 75%) are generally preferred for a generation and production of antibodies or fragments thereof, and/or T cell receptors or fragments thereof, as they show sufficient avidity to the MHC molecules and prevent dissociation of the MHC complexes.

Row | Substance | Peptide exchange (MHC class I binding score, peptide exchange yield)
1 | 1 (SLMEPPAVLLL; listed as Homo sapiens) [compound 1] | “+++” (>50 = +++)
2 | 4 (GIMEHITKI; listed as Homo sapiens) [compound 4] | “++++” (>75% = ++++)
3 | 6 (VLVSDGVHSV; listed as Homo sapiens) [compound 6] | “+++” (>50 = +++)
4 | 9 (GAAKDLPGV; listed as Homo sapiens) [compound 9] | “++” (>20% = ++)
5 | 10 (FLATFPLAAV; listed as Homo sapiens) [compound 10] | “++++” (>75% = ++++)
6 | 12 (SLWPDPMEV; listed as Homo sapiens) [compound 12] | “+++” (>50 = +++)
7 | 13 (YLMDESLNL; listed as Homo sapiens) [compound 13] | “+++” (>50 = +++)
8 | 14 (AAYGGLNEKSFV; listed as Homo sapiens) [compound 14] | “+++” (>50 = +++)
9 | 15 (VLLTFKIFL; listed as Homo sapiens) [compound 15] | “++” (>20% = ++)
10 | 16 (VLFQGQASL; listed as Homo sapiens) [compound 16] | “+++” (>50 = +++)
11 | 18 (YLVAKLVEV; listed as Homo sapiens) [compound 18] | “++” (>20% = ++)
12 | 20 (RMIEYFIDV; listed as Homo sapiens) [compound 20] | “+++” (>50 = +++)
13 | 21 (VLDELDMEL; listed as Homo sapiens) [compound 21] | “++” (>20% = ++)
14 | 22 (IMEENPGIFAV; listed as Homo sapiens) [compound 22] | “+++” (>50 = +++)
15 | 23 (VLLDDIFAQL; listed as Homo sapiens) [compound 23] | “+++” (>50 = +++)
16 | 24 (SLSDGLEEV; listed as Homo sapiens) [compound 24] | “++” (>20% = ++)
17 | 25 (FLPDEPYIKV; listed as Homo sapiens) [compound 25] | “+++” (>50 = +++)
18 | 26 (ALLELAEEL; listed as Homo sapiens) [compound 26] | “+++” (>50 = +++)
19 | 27 (ILADIVISA; listed as Homo sapiens) [compound 27] | “+++” (>50 = +++)
20 | 28 (QLLDETSAITL; listed as Homo sapiens) [compound 28] | “+++” (>50 = +++)
21 | 29 (KMLGIPISNILMV; listed as Homo sapiens) [compound 29] | “+++” (>50 = +++)
22 | 30 (LILDWVPYI; listed as Homo sapiens) [compound 30] | “+++” (>50 = +++)
23 | 31 (YLAPELFVNV; listed as Homo sapiens) [compound 31] | “++” (>20% = ++)
24 | 32 (KLDDLTQDLTV; listed as Homo sapiens) [compound 32] | “++” (>20% = ++)
25 | 33 (VLLSLLEKV; listed as Homo sapiens) [compound 33] | “++” (>20% = ++)
26 | 34 (ILVEADSLWVV; listed as Homo sapiens) [compound 34] | “+++” (>50 = +++)
27 | 35 (KINDTIYEV; listed as Homo sapiens) [compound 35] | “+++” (>50 = +++)
28 | 39 (SVAPNLPAV; listed as Homo sapiens) [compound 39] | “+++” (>50 = +++)
29 | 41 (SLMPHIPGL; listed as Homo sapiens) [compound 41] | “+++” (>50 = +++)

Results, then the substance that gave them:

Row | Peptide exchange (MHC class I binding score, peptide exchange yield) | Substance
30 | “+++” (>50 = +++) | 42 (VLLQKIVSA; listed as Homo sapiens) [compound 42]
31 | “++” (>20% = ++) | 43 (VLSSLEINI; listed as Homo sapiens) [compound 43]
32 | “++” (>20% = ++) | 44 (ILDPISSGFLL; listed as Homo sapiens) [compound 44]
33 | “+++” (>50 = +++) | 45 (SLWQDIPDV; listed as Homo sapiens) [compound 45]
34 | “+++” (>50 = +++) | 46 (ILTEENIHL; listed as Homo sapiens) [compound 46]
35 | “++” (>20% = ++) | 47 (ILLSVPLLVV; listed as Homo sapiens) [compound 47]
36 | “+++” (>50 = +++) | 50 (SLSELEALM; listed as Homo sapiens) [compound 50]
37 | “++++” (>75% = ++++) | 51 (LLPDLEFYV; listed as Homo sapiens) [compound 51]
38 | “++++” (>75% = ++++) | 52 (FLLAHGLGFLL; listed as Homo sapiens) [compound 52]
39 | “++++” (>75% = ++++) | 53 (KMIETDILQKV; listed as Homo sapiens) [compound 53]
40 | “+++” (>50 = +++) | 54 (SLLEQGKEPWMV; listed as Homo sapiens) [compound 54]
41 | “++++” (>75% = ++++) | 55 (SLLDLETLSL; listed as Homo sapiens) [compound 55]
42 | “+++” (>50 = +++) | 57 (TLAELQPPVQL; listed as Homo sapiens) [compound 57]
43 | “+++” (>50 = +++) | 59 (IMEDIILTL; listed as Homo sapiens) [compound 59]
44 | “++++” (>75% = ++++) | 62 (VLLDVSAGQLLM; listed as Homo sapiens) [compound 62]
45 | “++” (>20% = ++) | 63 (YLLPSGGSVTL; listed as Homo sapiens) [compound 63]
46 | “++” (>20% = ++) | 64 (YAAPGGLIGV; listed as Homo sapiens) [compound 64]

Row | Peptide exchange (MHC class I binding score, peptide exchange yield) | Substance
47 | “+++” (>50 = +++) | 66 (FLDENIGGVAV; listed as Homo sapiens) [compound 66]
48 | “+++” (>50 = +++) | 67 (TLLAEALVTV; listed as Homo sapiens) [compound 67]
49 | “++++” (>75% = ++++) | 68 (SLMELPRGLFL; listed as Homo sapiens) [compound 68]
50 | “+++” (>50 = +++) | 69 (FQLDPSSGVLVTV; listed as Homo sapiens) [compound 69]
51 | “+++” (>50 = +++) | 70 (GLLDYPVGV; listed as Homo sapiens) [compound 70]
52 | “+++” (>50 = +++) | 71 (GILARIASV; listed as Homo sapiens) [compound 71]
53 | “+++” (>50 = +++) | 72 (SLLELDGINL; listed as Homo sapiens) [compound 72]
54 | “+++” (>50 = +++) | 73 (NIFDLQIYV; listed as Homo sapiens) [compound 73]
55 | “+++” (>50 = +++) | 74 (ALLDPEVLSIFV; listed as Homo sapiens) [compound 74]
56 | “+++” (>50 = +++) | 75 (GLLEVMVNL; listed as Homo sapiens) [compound 75]
57 | “+++” (>50 = +++) | 76 (ILIDSIYKV; listed as Homo sapiens) [compound 76]
58 | “++++” (>75% = ++++) | 77 (ILVEADGAWVV; listed as Homo sapiens) [compound 77]
59 | “+++” (>50 = +++) | 78 (SLFSSLEPQIQPV; listed as Homo sapiens) [compound 78]
60 | “++” (>20% = ++) | 80 (FLYDNLVESL; listed as Homo sapiens) [compound 80]
61 | “++” (>20% = ++) | 81 (FLFSQLQYL; listed as Homo sapiens) [compound 81]
62 | “+++” (>50 = +++) | 82 (FLSSVTYNL; listed as Homo sapiens) [compound 82]
63 | “+++” (>50 = +++) | 83 (ILAPTVMMI; listed as Homo sapiens) [compound 83]
